PMC9052748, “The Di-Iron Protein YtfE Is a Nitric Oxide-Generating Nitrite Reductase Involved in the Management of Nitrosative Stress” (Journal of the American Chemical Society, 2022)

Key:
YtfE = target: T1, YtfE (Escherichia coli, UniProt P69506); assay: initial rates of DTT-mediated reduction of air-exposed YtfE (A340 nm), binding isotherm; type: biochemical; conditions: air-exposed (oxidized) YtfE ~90 μM; DTT 0 to 80 mM; reductant; apparent value from rates
T1 construct: C-terminal His tag (pGS2618, pET24a derivative), expressed in E. coli BL21 (DE3)-T1R, purified anaerobically; di-iron holo form, 26,154 Da, monomer
Text: initial rates of DTT-mediated reduction of air-exposed YtfE (A340 nm), binding isotherm on YtfE | fitted using a simple binding isotherm, from which a Kd was obtained

purified protein = substrate: O=NO; assay: purified protein; type: biochemical, Escherichia coli; conditions: di-ferrous YtfE 10 μM, reductant dithionite-reduced methyl viologen 58 μM, pH 7.5, 100 mM Tris, anaerobic

Molecule	Kd (YtfE)	Km (purified protein)	Vmax (purified protein)	kcat (purified protein)	kcat/Km (purified protein)
OC(CS)C(O)CS (stereo not drawn) [DTT]	7.3 mM				
YtfE (Escherichia coli K-12) (protein, C-terminal His tag (pGS2618, pET24a derivative), expressed in E. coli BL21 (DE3)-T1R, purified anaerobically; di-iron holo form, 26,154 Da, monomer) MAYRDQPLGELALSIPRASALFRKYDMDYCCGGKQTLARAAARKELDVEVIEAELAKLAEQPIEKDWRSAPLAEIIDHIIVRYHDRHREQLPELILQATKVERVHADKPSVPKGLTKYLTMLHEELSSHMMKEEQILFPMIKQGMGSQAMGPISVMESEHDEAGELLEVIKHTTNNVTPPPEACTTWKAMYNGINELIDDLMDHISLENNVLFPRALAGE		252 (± 32) μM	1.33 µmol/min/mg	0.58 ± 0.0265 s⁻¹	2300 ± 105 M⁻¹ s⁻¹
YtfE (Escherichia coli K-12; C30A/C31A) (protein, C-terminal His tag (pGS2618, pET24a derivative), expressed in E. coli BL21 (DE3)-T1R, purified anaerobically; di-iron holo form, 26,154 Da, monomer) MAYRDQPLGELALSIPRASALFRKYDMDYAAGGKQTLARAAARKELDVEVIEAELAKLAEQPIEKDWRSAPLAEIIDHIIVRYHDRHREQLPELILQATKVERVHADKPSVPKGLTKYLTMLHEELSSHMMKEEQILFPMIKQGMGSQAMGPISVMESEHDEAGELLEVIKHTTNNVTPPPEACTTWKAMYNGINELIDDLMDHISLENNVLFPRALAGE		288 (± 29) μM	1.59 µmol/min/mg	0.693 ± 0.0263 s⁻¹	2410 ± 91.7 M⁻¹ s⁻¹
